From the supplement of paper PMC7877785
± gives the uncertainty stated by the source.

Assay: self-splicing fitness, log relative to wild type (ln ratio); higher = more splicing; Tetrahymena group I intron in knt gene, E. coli kanamycin selection, DiMSum; sequences stand for … in CUCUCU…GGAGGGAAAAGUUAUCAGGCAUGCACCUGGUAGCUAGUCUUUAAACCAAUAGAUUGCAUCGGUUUAAAAGGCAAGACCGUCAAAUUGCGGGAAAGGGGUCAACAGCCGUUCAGUACCAAGUCUCAGGGGAAACUUUGAGAUGGCCUUGCAAAGGGUAUGGUAAUAAGCUGACGGACAUGGUCCUAACCACGCAGCCAAGUCCUAAGUCAACAGAUCUUCUGUUGAUAUGGAUGCAGUUCACAGACUAAAUGUCGGUCGGGGAAGAUGUAUUCUUCUCAUAAGAUAUAGUCGGACCUCUCCUUAAUGGGAGCUAGCGGAUGAAGUGAUGCAACACUGGAGCCGCUGGGAACUAAUUUGUAUGCGAAAGUAUAUUGAUUAGUUUUGGAGUACUCGUGGUCG
How it was run: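 Colonies from six replicate transformations of E. coli BL21(DE3) were pooled and amplicon-sequenced on an Illumina HiSeq 2500. The library placed an intron with all eight P1ex-region nucleotides randomised inside the knt kanamycin-resistance gene on pET-22b(+), and cells grew overnight at 37°C or 30°C on LB agar with or without 25 μg/mL kanamycin (plus 100 μg/mL carbenicillin, 50 μM IPTG, 0.2% rhamnose). Fitness is the DiMSum error-weighted combination of wild-type-normalised replicate fold changes, kanamycin versus none.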

| Sequence | self-splicing fitness (ln) (30 °C) | self-splicing fitness (ln) (37 °C) |
| --- | --- | --- |
| CAUAAGCAAUAUUACGACGA | -2.01 ± 0.17 | -0.546 ± 0.11 |
| AUAGAGCAAUAUUACGAACU | -0.774 ± 0.13 | 0.227 ± 0.18 |
| GAGUAGCAAUAUUACGCAGG | -3.04 ± 0.22 | -3.26 ± 0.24 |
| UACAAGCAAUAUUACGGUUU | -1.86 ± 0.093 | -0.738 ± 0.095 |
| UUCGAGCAAUAUUACGGUUA | -1.19 ± 0.13 | -1.05 ± 0.1 |
| AUUUAGCAAUAUUACGGGAG | -2.97 ± 0.41 | -0.342 ± 0.16 |
| CAGUAGCAAUAUUACGUGUA | -4.62 ± 0.34 | -2.55 ± 0.19 |
| UAAAAGCAAUAUUACGACGU | -0.791 ± 0.13 | -0.527 ± 0.12 |
| UCCCAGCAAUAUUACGGUAG | -2.7 ± 0.12 | -1.45 ± 0.11 |
| UUGAAGCAAUAUUACGUCCU | -0.231 ± 0.18 | -0.346 ± 0.13 |
| CGCCAGCAAUAUUACGUGUG | -2.82 ± 0.094 | -1.81 ± 0.11 |
| UGUUAGCAAUAUUACGCUAU | -3.53 ± 0.49 | -1.29 ± 0.32 |
| UAAUAGCAAUAUUACGACAU | -3.378 ± 0.025 | -1.95 ± 0.036 |
| UACUAGCAAUAUUACGUUAU | -3.58 ± 0.18 | -1.45 ± 0.14 |
| ACAUAGCAAUAUUACGAGUC | -3.91 ± 0.27 | -3.33 ± 0.25 |
| AUCAAGCAAUAUUACGACAU | 0.105 ± 0.011 | 0.377 ± 0.032 |
| GUGCAGCAAUAUUACGUUGG | -2.58 ± 0.084 | -1.56 ± 0.097 |
| CAUGAGCAAUAUUACGGACG | -0.912 ± 0.087 | -0.391 ± 0.11 |
| CAAUAGCAAUAUUACGAAGA | -3.96 ± 0.39 | -1.31 ± 0.2 |
| UUGUAGCAAUAUUACGCUCU | -1.21 ± 0.2 | -1.29 ± 0.15 |
| UCUCAGCAAUAUUACGAAAU | – | -2.86 ± 0.32 |
| GGAAAGCAAUAUUACGAGUC | -0.868 ± 0.11 | -1.48 ± 0.12 |
| CUAGAGCAAUAUUACGGAUA | – | -1.44 ± 0.4 |
| UUCGAGCAAUAUUACGGCUU | -3.14 ± 0.18 | -2.65 ± 0.33 |

| Sequence | self-splicing fitness (ln) (30 °C) | self-splicing fitness (ln) (37 °C) |
| --- | --- | --- |
| GGAAAGCAAUAUUACGGGCG | -0.494 ± 0.079 | -0.213 ± 0.11 |
| AACAAGCAAUAUUACGGCCU | 0.0767 ± 0.082 | 0.355 ± 0.1 |
| GUAGAGCAAUAUUACGUACG | -1.92 ± 0.19 | -1.35 ± 0.35 |
| UCAUAGCAAUAUUACGUUAG | -2.9 ± 0.25 | -1.66 ± 0.19 |
| AUUAAGCAAUAUUACGUUGC | -3.29 ± 0.23 | -3.01 ± 0.37 |
| CAAGAGCAAUAUUACGACGA | -3.01 ± 0.2 | -1.77 ± 0.23 |
| ACUAAGCAAUAUUACGAUAC | -2.39 ± 0.21 | -1.29 ± 0.22 |
| AGGUAGCAAUAUUACGAGGU | -3.749 ± 0.029 | -2.49 ± 0.039 |
| UAUUAGCAAUAUUACGAGUU | -2.88 ± 0.16 | -0.971 ± 0.15 |
| GUUGAGCAAUAUUACGGAGC | -1.01 ± 0.2 | -2.82 ± 0.3 |
| AGAGAGCAAUAUUACGUCGG | -2.92 ± 0.25 | -2.2 ± 0.26 |
| UCGUAGCAAUAUUACGCGUA | -1.16 ± 0.14 | -0.895 ± 0.11 |
| CUGGAGCAAUAUUACGUCUA | -1.72 ± 0.3 | -0.483 ± 0.23 |
| GCCCAGCAAUAUUACGAUAC | -2.24 ± 0.086 | -0.313 ± 0.094 |
| GAACAGCAAUAUUACGCACC | -0.638 ± 0.096 | 0.0849 ± 0.097 |
| CAGCAGCAAUAUUACGGCAU | -0.874 ± 0.074 | -0.81 ± 0.096 |
| UGCCAGCAAUAUUACGCGUA | -1.13 ± 0.075 | -0.301 ± 0.083 |
| GGUCAGCAAUAUUACGCGCU | – | -2.13 ± 0.15 |
| CGCCAGCAAUAUUACGUUAG | -0.475 ± 0.074 | 0.385 ± 0.099 |
| GCGCAGCAAUAUUACGUGAA | 0.0716 ± 0.076 | 0.149 ± 0.074 |
| ACGGAGCAAUAUUACGCAAA | -2.73 ± 0.25 | -1.58 ± 0.22 |
| ACUUAGCAAUAUUACGCCUU | -0.353 ± 0.095 | -0.14 ± 0.11 |
| GCCGAGCAAUAUUACGGGAU | -2.03 ± 0.11 | -0.76 ± 0.13 |
| CCGCAGCAAUAUUACGACCU | -3.36 ± 0.23 | -2.63 ± 0.29 |
